How the values were obtained:
[1] = test system: MS2 coat protein; test: apparent KD of MS2 coat protein, switch OFF state (with FMN for OFF switches, without FMN for ON switches); designed switch direction (-1 OFF switch, 1 ON switch): 1; higher = weaker reporter binding; conditions: FMN input: 0 or 200 uM; Eterna round: R93 (includes R88 designs)
In short: (§1)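 Designed RNA switches were transcribed on-chip from Illumina sequencing clusters. SNAP-549-labelled MS2 coat protein was titrated onto them in twofold steps from 0.7 or 1.5 nM to 3 µM in 100 mM Tris-HCl pH 7.5, 80 mM KCl, 4 mM MgCl2, either without or with constant ligand. Apparent KD reflects the per-design median of normalised cluster binding-curve fits.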

[2] = test system: MS2 coat protein; test: apparent KD of MS2 coat protein, switch ON state; designed switch direction (-1 OFF switch, 1 ON switch): 1; higher = weaker reporter binding; conditions: FMN input: 0 or 200 uM; Eterna round: R93 (includes R88 designs)
In short: as §1

Row | Sequence | apparent KD of MS2 coat protein [1] [nM] | apparent KD of MS2 coat protein [2] [nM]
1 | AACAGACAUGAGGAUCACCCAUGUAGAAUUAUGGGAGGAUAUACAAAGACGAGAGUCAGAGUAGAAGGCCUAGGAU [salish99-ss1-166] | 63.4 | 22.8
2 | AAAAAACAUGAGGAUCACCCAUGUAAAAAAAUGGGAGGAUAUACAAAAACGAAAAAAAAAGUAGAAGGCCUGAAAA [same state 8] | 162 | 57.4
3 | GGGAGACAUGAGGAUCACCCAUGUGAGAAGAGGCGAGGAUAUCGAAAGAAAGAAGAGAAACGAGAAGGCGCGAGCG [salish99-SS1-060] | 86.7 | 32.5
4 | AAAAUACAUGAGGAUCACCCAUGUGAGAAAAACGCAGGAUAUGCAAAAAAAAAAAAAAAAGCAGAAGGGUGAAAAA [SameState1-I] | 103 | 54.8
5 | GAGGACCUAGGAUAGGAUAUAUGAAUAAUUACAUGAGGAUCACCCAUGUCCAUUUAUAUGGGAACAUAGAAGGGUUGUGGUUAUC [SameState2 Malc#36] | 178 | 147
6 | AAACCACAUGAGGAUCACCCAUGUAAGAUAUACAUAGGAUAUGCGAAAAGAAACAAAGAAGCAGAAGGGUGAAAAA [75%, Ex sub1, 14] | 72.8 | 172
7 | CUGGAACAUGAGGAUCACCCAUGUCACAGAAACUGAGGAUAUGGGCGCUAACAAGCAUGACCAGAAGGCAGACACG [Mamaes] | 27.2 | 18
8 | AAAUAACAUGAGGAUCACCCAUGUUACAACUUUACAGGAUAUGUGGGUGAAAAUAGCAUGACAGAAGGGUACAGUA [SameState1 Malc#35] | 158 | 171
9 | AAAAGACAUGAGGAUCACCCAUGUAAAAACUUGAGAGGAUAUGCUUGAAAAACAUGCUAUGCAGAAGGCUCUAGUC [SS1 - 16] | 28.2 | 21.3
10 | GGCUGCGUUGUGAAGGAUAUCCGCGUCUGGACAUGAGGAUCACCCAUGUAUACUUGGAUCGUGCAGGAGAAGGUCAAGGGUGAUU [JR_SS002_Sub1211] | 63.3 | 130
11 | ACUUCACAUGAGGAUCACCCAUGUCAGGCCGGACUAGGAUAUUAUAAACCAGAGUAAAAAUAAGAAGGAGUAGGAA [JR_SS001_Sub311] | 75.2 | 67.9
12 | AAAAAACAUGAGGAUCACCCAUGUAAAAAAAUCGCAGGAUAUAGGGUCGCGAAAGCGACCCUAGAAGGGCGAUCCU [Louisiana 2 - Jieux - Same State 1] | 76.1 | 52
13 | AAAGAAAAACUAGAGGAUAUCCGAGUGGUAACAUGAGGAUCACCCAUGUGAAGAAAGGAACAUAUGGAGAAGGCUAGAAGAAAAA [JL Nando Mod 4] | 438 | 63.5
14 | AGGAAACAUGAGGAUCACCCAUGUCUAAAUAUGGGAGGAUAUGCACAAAAGGAAAUAACUGCAGAAGGCCUAAAAA [62%, Redo, 4] | 103 | 17.3
15 | UGGAGACAUGAGGAUCACCCAUGUGAGAAGAGGCGAGGAUAUCGAAAAAAAAAAAAAAAACGAGAAGGCGCGAGAC [salish99-SS1-010] | 41.2 | 33.3
16 | GAAAAACAUGAGGAUCACCCAUGUGAGAAUAUGGGAGGAUAUACGAAGACGAGAGUCGAAGUAGAAGGCCUAAAAG [Mat - Same State 1 - Eli mod - 31] | 119 | 28.2
17 | AAAAUACAUGAGGAUCACCCAUGUGAAAAUAUGGGAGGAUAUCAUGGAAAAAAAAAAACAUGAGAAGGCCCAAAAA [SS! 1 MT 10] | 104 | 24.8
18 | GAGAAGAAGAGAGAGGAUAUCCAAAGGAAAACAUGAGGAUCACCCAUGUAAAAGGUAGGAAAUUGGGAGAAGGCUCAGAAGAGGG [salish99-ss2-030] | 26.6 | 23.2
19 | AAGAAACAUGAGGAUCACCCAUGUAAGAUAAACACAGGAUAUGCGAAAAUAAACAAAGAAGCAGAAGGGUGAAGAA [Mat - Same State 1 - Tesla mod - 62] | 41.9 | 13.5
20 | AGGAAACAUGAGGAUCACCCAUGUAAAAAUAUGGGAGGAUAUGGAAACACGAAAGUGAAACCAGAAGGCCCGAAAA [77%, Mat - Mod of Eli, 18] | 23.9 | 17.1
21 | ACAAGGCUACACUAGGAUAUGGGUGUCUAAACAUGAGGAUCACCCAUGUGAUGGCAAAACAAAGCUCAGAAGGAGUCGUAGCCCA [Anvemais] | 27.4 | 14.7
22 | AAAUAAAUGACUGAGGAUAUAUCGAUGGGUACAUGAGGAUCACCCAUGUGUUAAUAAAAAGGGUGGUAGAAGGUAGUCAACAAAC [Mod 16 of Pariah 4 by Hyphema in Round 1] | 748 | 238

Row | Sequence | apparent KD of MS2 coat protein [1] [nM] | apparent KD of MS2 coat protein [2] [nM]
23 | AAUAUACAUGAGGAUCACCCAUGUGAAAAUAUGGAAGGAUAUCGUAAAAAAAAAAAAAAACGAGAAGGUCCAAAAA [SS! 1 MT 14] | 30.2 | 18.7
24 | UAUCAUUACACGAAGGAUAUCGAAAAAAGAACAUGAGGAUCACCCAUGUGAAAUAAAAUACAGAACGAGAAGGUCGAGGGUGAAG [JR_SS002_Sub702] | 30.3 | 23.1
25 | ACGGCACAUGAGGAUCACCCAUGUGCCGAGAGGCGAGGAUAUCGAAAAAAAAAAAAAAAACGAGAAGGCGCGAGAA [SameState1NO] | 11.1 | 12.6
26 | AAAGAAAAACUAGAGGAUAUCCAAGUGGUAACAUGAGGAUCACCCAUGUGAAGAAAGGAGCAUGAGGAGAAGGCUAGAAGAAAAA [JL Nando mod 25] | 82.3 | 19.2
27 | AGAAAACAUGAGGAUCACCCAUGUGAUAAUAUGGGAGGAUAUACGAAGACGAAAGUCGACGUAGAAGGCCUAAAGA [Garnet 48] | 70.8 | 35.3
28 | AGGAAACAUGAGGAUCACCCAUGUAGAAAUAUGGGAGGAUAUACAAAGACGAAAGUCAAAGUAGAAGGCCUAAAAG [76%, Meechl 1] | 63 | 22.8
29 | AAGAAACAUGAGGAUCACCCAUGUAGAAAUAUGGGAGGAUAUACAAGGACGAGAGUCAAGGUAGAAGGCCUAAGAA [Mat - Same State 1 - Meechl mod - D134] | 111 | 17.6
30 | AGUCCACAUGAGGAUCACCCAUGUCUGGAGAAGACAGGAUAUAAGGAAAAAAAAAAAAACUUAGAAGGGUCAAAAA [Bexeusisus] | 49.5 | 26.8
31 | CGCGAACAUGAGGAUCACCCAUGUGAAAAACAUAGAGGAUAUGUCGCAUGCGUGUAAAAGACAGAAGGCUAUCGCG [Normal (21/22)] | 72.5 | 22.8
32 | GAAAAUAAAAGACAGGAUAUCCAAAAGAAAACAUGAGGAUCACCCAUGUAAAGAAAAUAAAAAUGGGAGAAGGGUCAAAUAAAAG [Mat - Same State 2 - JL mod - D52] | 56.6 | 64.8
33 | AACUACAUUAUGAAGGAUAUCCACAUCUAGACAUGAGGAUCACCCAUGUAUACUUAGAUCAUACAGGAGAAGGUCAAGGGUGAUU [JR_SS002_Sub1208] | 131 | 172
34 | AUAAAUAAAAUCGAGGAUAUCCAAAAAAAAACAUGAGGAUCACCCAUGUAAAAGAAAAUAAUAUGGGAGAAGGCGAAAAAUAAAU [SS2 M 5] | 59.2 | 36.8
35 | UUUAAUUACACGAAGGAUAUCGAUUUUCAGACAUGAGGAUCACCCAUGUAGUAGAUUUCCCUGUUCGAGAAGGUCGCGGGUGAAC [JR_SS002_Sub602] | 30.3 | 39.3
36 | GGAUAUAUACAGGAGGAUAUGAGAACAAAGACAUGAGGAUCACCCAUGUACAAAAGGUGGAACAAUCAGAAGGUCUAAACAACAAA [Thing 1 and Thing 2] | 49.7 | 61
37 | AGCAUAGACAGAGAGGAUAUCCACGAGACAACAUGAGGAUCACCCAUGUGAAAGAGAAUACGAUGGGAGAAGGCUCGCGAUACGA [Topaz 49] | 19.7 | 13.4
38 | AGAAUAAAAAGACAGGAUAUCCAAAAGAAAACAUGAGGAUCACCCAUGUAAAGAAAAGAAAAAUGGGAGAAGGGUCAAAAUAAGA [Mat - Same State 2 - JL mod - D59] | 56.3 | 20.4
39 | GAAAAACAUGAGGAUCACCCAUGUAGAAAUAUGGGAGGAUAUACUAAGACGAAAGUCGAAGUAGAAGGCCUAAAAG [Same State 1.4f (Mat - Mod of Eli - )] | 54.2 | 21.7
40 | AAGAAACAUGAGGAUCACCCAUGUGAGAACAUGGGAGGAUAUACGAAGACGAAAGUCGAAGUAGAAGGCCUAAAAG [Garnet 80] | 24.9 | 243
41 | AAAAAACAUGAGGAUCACCCAUGUAAAAAAAACACAGGAUAUCCCUUUUAAAAAAAAAAAGGAGAAGGGUGAAAAA [Nob's Hobby 5 - Jieux - Same State 1] | 29.9 | 16.1
42 | GACGAACAUGAGGAUCACCCAUGUCAAAACGGACAAGGAUAUGUGUGGAAACCGUACUAUACAGAAGGUGUCUGUC [SS1 - 98] | 21.3 | 16.1
43 | GAAAAACAUGAGGAUCACCCAUGUAAGAUAAACACAGGAUAUGCGAAAAUAAAUAAAUAAGCAGAAGGGUGAAGAA [Mat - Same State 1 - Tesla mod - 74] | 35.2 | 11.5

Reference: the supplement of paper PMC9170038
